Ends that are not written are not given here.
Biological target: α3β1 integrin on PC12 cells (rat (PC12 cells)) (UniProt P49134)
Assay: cell-based or functional assay

Chain of α3β1 integrin on PC12 cells (rat (PC12 cells)) (P49134 21-798): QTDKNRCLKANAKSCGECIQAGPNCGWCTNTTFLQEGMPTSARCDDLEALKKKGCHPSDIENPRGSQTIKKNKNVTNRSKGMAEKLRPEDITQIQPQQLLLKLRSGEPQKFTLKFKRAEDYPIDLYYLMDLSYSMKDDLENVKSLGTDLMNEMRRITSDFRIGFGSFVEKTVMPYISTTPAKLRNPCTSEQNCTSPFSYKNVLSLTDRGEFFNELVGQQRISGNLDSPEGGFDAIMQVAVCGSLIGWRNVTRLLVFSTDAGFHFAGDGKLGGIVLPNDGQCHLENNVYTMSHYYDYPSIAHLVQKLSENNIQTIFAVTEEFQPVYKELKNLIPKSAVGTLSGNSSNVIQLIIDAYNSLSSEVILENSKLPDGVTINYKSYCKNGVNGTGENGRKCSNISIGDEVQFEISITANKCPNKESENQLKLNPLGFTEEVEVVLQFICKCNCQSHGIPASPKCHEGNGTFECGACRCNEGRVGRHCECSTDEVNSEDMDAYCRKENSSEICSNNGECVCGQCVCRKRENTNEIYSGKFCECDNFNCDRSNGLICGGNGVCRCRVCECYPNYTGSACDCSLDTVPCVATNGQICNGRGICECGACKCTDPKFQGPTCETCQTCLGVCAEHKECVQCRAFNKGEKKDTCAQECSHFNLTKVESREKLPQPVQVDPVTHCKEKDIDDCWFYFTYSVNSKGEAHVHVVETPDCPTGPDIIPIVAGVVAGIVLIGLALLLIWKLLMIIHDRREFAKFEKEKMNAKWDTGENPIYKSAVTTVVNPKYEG

inhibition of PC12 cell adhesion to coated rLG3 (25 µg/mL) by soluble peptide: 40 % inhibition
Binder: RNIPPFEGCIWN-NH2 [Ln2-LG3-P2 peptide (…)]
